From the supplement of paper PMC9876800

System: peptide library, one residue held at a place counted from the S/T acceptor
Test: relative phosphorylation of the sub-library (ratio to the mean residue at this position); human; higher = residue favoured
Procedure, shortened: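 Purified recombinant kinases were reacted in 384-well plates with biotinylated degenerate peptide sub-libraries, each having one residue fixed at one position around a central Ser/Thr. The reaction mix contained 50 μM peptide plus 50 μM ATP spiked with γ-32P-ATP and ran for 90 min under kinase-specific conditions. Relative sub-library phosphorylation, taken from densitometry of phosphorimaged streptavidin membrane spots, is a ratio to the mean residue at that position.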

Sequence of NEK6, construct: Full length (Q9HC98 whole entry, looked up): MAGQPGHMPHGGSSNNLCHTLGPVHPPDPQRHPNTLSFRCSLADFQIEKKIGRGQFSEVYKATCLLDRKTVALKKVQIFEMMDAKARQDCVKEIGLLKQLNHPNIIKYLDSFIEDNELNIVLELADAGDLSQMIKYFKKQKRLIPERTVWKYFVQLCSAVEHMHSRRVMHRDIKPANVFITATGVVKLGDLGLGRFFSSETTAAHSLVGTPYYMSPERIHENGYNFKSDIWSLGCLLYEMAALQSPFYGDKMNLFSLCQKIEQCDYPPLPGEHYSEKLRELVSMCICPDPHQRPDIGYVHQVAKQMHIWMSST
Sequence of TP53RK, construct: Full length (Q96S44 whole entry, looked up): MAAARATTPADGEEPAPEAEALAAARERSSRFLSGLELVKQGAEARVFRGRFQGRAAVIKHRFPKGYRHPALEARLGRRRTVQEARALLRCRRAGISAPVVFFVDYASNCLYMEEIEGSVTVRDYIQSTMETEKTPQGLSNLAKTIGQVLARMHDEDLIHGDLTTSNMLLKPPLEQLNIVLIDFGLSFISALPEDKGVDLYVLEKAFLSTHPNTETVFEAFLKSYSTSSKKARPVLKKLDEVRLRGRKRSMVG

NEK6, construct: Full length (from UniProt Q9HC98)
relative phosphorylation
Conditions	at +1	at +2	at +3	at +4	at -1	at -2	at -3	at -4	at -5
A fixed	0.844	1.17	0.962	0.822	1.21	1.16	1.04	1.26	1.16
D fixed	0.481	0.764	0.624	0.699	1.47	2.91	0.911	2.11	2.07
E fixed	0.344	0.325	0.564	0.578	1.96	1.89	0.611	1.18	1.15
F fixed	1.46	0.69	0.987	0.886	0.525	0.647	1.61	0.839	0.875
G fixed	1.02	1.27	1.69	1.26	0.75	1.75	1.06	1.13	1.36
H fixed	1.2	1.23	1.13	1.02	1.13	0.982	0.792	0.894	0.979
I fixed	0.646	0.568	0.537	0.616	0.434	0.425	0.495	0.531	0.632
K fixed	0.65	1.61	1.4	1.78	1.22	0.663	0.48	0.837	0.849
L fixed	0.886	0.443	0.767	0.593	0.72	0.612	2.04	0.735	0.747
M fixed	1.57	0.747	0.704	0.626	0.859	0.789	1.2	0.71	0.753
N fixed	1.2	1.87	1.24	0.917	1.38	1.6	0.869	1.29	1.16
P fixed	0.367	0.985	1.12	1.4	0.326	0.521	1.78	1.32	1.09
Q fixed	1.68	0.722	1.02	1.07	1.56	0.728	0.62	0.894	0.819
R fixed	0.986	2.23	1.4	1.4	1.51	0.663	0.463	0.869	0.685
V fixed	0.602	0.533	0.568	0.707	0.578	0.436	0.503	0.549	0.88
W fixed	1.5	0.87	1.38	1.36	0.619	0.577	1.25	1.1	1.04
Y fixed	1.56	0.989	0.901	1.27	0.744	0.65	1.27	0.75	0.767
pThr fixed	0.602	0.396	0.534	0.628	0.494	0.773	0.677	0.906	0.992
pTyr fixed	0.822	0.356	0.653	0.545	2.57	1.53	1.01	1.01	0.799

TP53RK, construct: Full length (from UniProt Q96S44)
relative phosphorylation
Conditions	at +1	at +2	at +3	at +4	at -1	at -2	at -3	at -4	at -5
A fixed	0.941	0.938	1.06	0.947	1.23	1.24	1.01	1.17	1.05
D fixed	1.03	1.01	0.952	1.05	0.972	0.929	1.02	0.897	0.956
E fixed	1.09	1.08	0.988	1.16	1	1.04	1.1	0.973	0.922
F fixed	1.12	1.09	1.04	0.983	0.998	0.94	1.03	0.971	0.953
G fixed	0.918	0.956	1.08	0.958	1.3	1.49	1.08	1.12	0.976
H fixed	1.07	1.33	1.07	1.11	0.847	0.877	0.987	1.11	1.17
I fixed	0.913	0.816	0.945	0.896	0.976	1.01	0.878	0.829	0.893
K fixed	1.05	1.01	0.99	1.09	0.864	0.848	0.985	1.07	1.12
L fixed	1.01	0.85	0.926	0.862	1.03	0.981	0.815	0.792	0.86
M fixed	0.979	0.926	0.959	0.879	1.04	1.02	1.03	0.949	0.946
N fixed	1.01	0.998	0.947	0.955	0.933	0.927	1.02	0.966	0.961
P fixed	0.85	0.925	1.02	0.967	1.24	1.2	0.955	1.16	0.989
Q fixed	1.04	0.975	0.953	1.08	0.897	0.906	1.06	1.04	0.903
R fixed	0.973	0.971	0.964	1.01	0.857	0.853	1	1.03	1.12
V fixed	0.917	0.885	0.949	0.838	0.964	0.989	0.894	0.931	0.962
W fixed	1.05	1.13	1.04	1.15	0.907	0.867	1.14	1.07	1.16
Y fixed	1.05	1.11	1.12	1.07	0.939	0.892	0.996	0.922	1.05
pThr fixed	0.977	0.952	0.886	1.03	1.06	1.08	0.987	0.973	0.943
pTyr fixed	1.05	1.11	1.02	1.01	3.48	1.31	1.08	0.942	0.944
